assay: soluble on expression in E. coli; label from the status in PepcDB or PDB records

**Q.** With “MASIAIEYHSVVLGMERKVNVIYPDQSEIPKKDQGDKDIPVLYLLHGMGGNENSWQKRTAIERLLRHTNLIVVMPSTDLGWYTDTAYGLNYYRALSQELPQVLAAFFPNMTQKREKTFVAGLSMGGYGAFKWALKSNRFSYAASFSGALDFSPETLLEGKLGELAYWQGVFGQFDDPDLDKHYLKNMVAESDGKTKFYAWCGYEDFLFATNEKAIADFQAQGLDIDYHKGHGKHEWYYWNQQLEVLLEWLPINYQKEERLS” as the sequence, how does the “soluble on expression in E. coli” value read?
**A.** not soluble

**Q.** Which “soluble on expression in E. coli” value does the source give for “VAYLTEVVVNEVVEAHEVPEVQHALNINSSESLIHIVRTRRLNQHVKIVDEDYFLKSIVSDIGNDVASDSIYDYLEKVLNLNISYSSKSITFEPFDEQAYQLFGDVSVAYSATVRSIVYLENTMPFQYNISKHLA” here?
**A.** not soluble

**Q.** With “MNVFAFSISGGGSERSYKETEKTSAMTTTHSTKLQPSQAILFKMREDAPPLNLTEEMPPPFPTKANYLIHPVRLEHHHHHH” as the sequence, how does the “soluble on expression in E. coli” value read?
**A.** not soluble

**Q.** Which “soluble on expression in E. coli” value does the source give for “SGWRSSVSRSLRPETSCDRPSSHLRNMDVNMAAELSPTNSSSSGELSVSPEPPRETQAFLGKVTVIDYFTFQHKHLKVTNIDDMTETLYVKLPENMTRCDHLPITCEYLLGRGSYGAVYAHADNATVKLYDSVTELYHELMVCDMIQIGKATAEDGQDKALVDYLSACTSCHALFMPQFRCSLQDYGHWHDGSIEPLVRGFQGLKDAVYFLNRHCGLFHSDISPSNILVDFTDTMWGMGRLVLTDYGTASLHDRNKMLDVRLKSSKGRQLYRLYCQREPFSIAKDTYKPLCLLSKCYILRGAGHIPDPSACGPVGAQTALRLDLQSLGYSLLYGIMHLADSTHKIPYPNPDMGFDRSDPLYFLQFAAPKVVLLEVLSQMWNLNLDMGLTSCGESPCVDVTAEHMSQFLQWCRSLKKRFKESYFFNCRPRFEHPHLPGLVAELLADDFFGPDGRRG” here?
**A.** soluble

**Q.** With “MFDRLKNGEKIAPIVKEVESQITEVHKRADEVIESNQFRVLESFGKHKISDSHFIPTTGYGYDDIGRDTLEKVYADVFGAEAGLVRPQIISGTHAISTALFGILRPGDELLYITGKPYDTLEEIVGVRGKGVGSFKEYNIGYNAVPLTEGGLVDFEAVAAAIHSNTKMIGIQRSKGYATRPSFTISQIKEMIAFVKEIKPDVVVFVDNCYGEFIEEQEPCHVGADLMAGSLIKNPGGGIVKTGGYIVGKEQYVEACAYRLTSPGIGAEAGASLYSLQEMYQGFFLAPHVAGQALKGAIFTAAFLEKLGMNTSPAWNAPRTDLIQSVQFDDKDRMIAFCQAIQYASPINSHFTPYANYMPGYEDDVIMAAGTFIQGASIELSADGPIRPPYVAYVQGGLTYSHVKIAICSAIDELIEKNLLTISLEHHHHHH” as the sequence, how does the “soluble on expression in E. coli” value read?
**A.** soluble

**Q.** Which “soluble on expression in E. coli” value does the source give for “MKERTIQPVNNGLNGNITIPGDKSISHRAVMFGAIAEGTTTIKGFLPGADCLSTISCFKEMGVDIVQNGDEVTVVGKGLEGLQEPKAVLDVGNSGTTIRLMSGILANTPFLSCVQGDTSIAKRPMKRVTNPLKQMGANIDGREEGTFTPLTIRGGDLKAIEYTSPVASAQVKSAILLAGLRAEGVTAVTEPHISRDHTERMLEAFGVKVTREGKTVKLAGGQKLTATDVQVPGDVSSAAFFLVAGAIIPNSKLVLENVGMNPTRTGIIDVLEKMGATFTVEPINEGASEPAANITIETSSLKGIEIGGDIIPRLIDEIPVIALAATQAEGITVIKDAHELKVKETNRIDTVVAELTKLGARIEATDDRMIIYGKSALKGNTVNSYGDHRIGMMLAIAGCIAEGKTIIEDAEAVGVSYPTFFEELQKLAK” here?
**A.** not soluble

**Q.** Which “soluble on expression in E. coli” value does the source give for “LGTQMGIQTPIRIEAFDNSNIQGVDPVSAMVTFVDGKPDKKNYRKYKIKTVKGPDDYKSMREVVRRRYSRVLNEGLPLPDLIIVDGGKGHMNGVIDVLQNELGLDIPVAGLQKNDKHQTSELLYGASAEIVPLKKNSQAFYLLHRIQDEVHRFAI” here?
**A.** not soluble

**Q.** Which “soluble on expression in E. coli” value does the source give for “MSLYKKYLLLGVSLCMLNACNESKSVSLEGSLDGIQADSIYLYQVDNEHYGSVKLIKSIAVTDGRFAYPTDSIQAGLYCFSLQNMERGEYLQQYANLFLEPKSMQLTLGKDKYDQLSLHATGSALQEQYEALQEAKYVAGNRMVLDSLDHMFYEAREKGDREEMERIREVSSPYYESASEQTRKLINGEIAKNKGSYFGLYLYYTYRFQNHTFNTVEEIDEARNFIGSFDEASRRSGIYVKMQEGLDKFARCATGSVAPAITGIDLKGNSVSLNDFKGKYVLVDFWFAGCSWCRKETPYLLKTYNAFKDKGFTIYGVSTDRREEDWKKAIEEDKSYWNQVLLQKDDVKDVLESYCIVGFPHIILVDPEGKIVAKELRGDDLYNTVEKFVNGAKEGHHHHHH” here?
**A.** soluble

**Q.** For “MAHHHHHHMLVSERAQPVRLFNCLLLRAHKDDESDGAACALHKNAASTSPTTDPIAAATAVGATRLYFTEGGPSSSLTALQRYLKVEEAHTTCPLLRVLQLAPQAPTGNMQPLVYVELDTPNAVSLSDDAQGRREAVLTTCSGVCTQETMPSRWYHAPVKATLCVFQEFMRAPTTSAASEPAFWAFLESVVRYHARDFYCGAVQVELQCVFVPTFEEKQNTAYSVDVFGDYVNEKEGQAQQSSPAAGKGRTAMKICVKSTEAFEHVMAYLKTQCPLLEADFRSSHLVVYAKWSSQLSAVRDSSHSQPPAADATGAVEQAACFVWLQDDAGGGGRDGVYADAALEALLDELTLAAASISTPSRAAAVLQEEGVSSFFEACCLTHTLKRVIRKHFQAVVLRQRPLFHWVISLPPYARLSRSTTSAAVTAMRFRDNAAVSRAVWGATQMLVHWQQLSNSAHALANEALKQSFGRGSGPSRQIVSAPARVPRQRRAIQQSALYGDTFSGGSALDRQRGKVNVPHLYGADEGHDASISLSSAQRGSVMAASGLFHNLRSIKEDSFNNTSVLDAEDVFGSNPKLTTRVVKRLAQSRTSVHTAQ”, which “soluble on expression in E. coli” value is on record?
**A.** not soluble

**Q.** With “QPTAQQQLTKPAKITCANCKKPLQKGQTAYQRKGSAHLFCSTTCLSSFS” as the sequence, how does the “soluble on expression in E. coli” value read?
**A.** soluble

**Q.** Which “soluble on expression in E. coli” value does the source give for “PKTQRGIYHNLKESEYVASNTDVTFFFSSELYLNKFLDGYQEYRKKFNKKIERVAVTPWNMDMLADITFYSEVEKRGFHAWLKGDNATWREVHVYALRIMTKPNTLDWSRIQKPRLRERRKSM” here?
**A.** soluble

**Q.** Which “soluble on expression in E. coli” value does the source give for “MKIARLNLWHVPLTSHTAYYMADGKTCDTVETVVIAVQTDTGITGWGEVCPIPHYLPAYARGVAPALTELAPVILGADPVGVGALMERVDAVLHGHPYAKSALDIALWDITGQVAGLPLHALLGGWRAADMPLYHSITCIAPDDMARIAREAQAQGITQFQVKLGASGDWQTDVERLAKVREAVGPGPLVYGDWNCGATSLEAIRVGRAVAQLDIMLEQPCATLEDCARVQRATGLPMKIDELAHDTASLLTAHRLGIMDAVALKLSKFGGLSTTRRARDLCLHLGARMCIEDTWGSDITTAALLHLGAASEPGRVLNVCDLSGYVAPRLAPDAPVRANGRIAPPEGAGLGITVDRGALGVPDLILD” here?
**A.** soluble

**Q.** Which “soluble on expression in E. coli” value does the source give for “MRHMMQLKAPFFSDNATDLPFWWEEARPSPVQTDDLPSSTEVAIIGAGFTGLNAALVLARAGKQVSVFDADEPGYGASSRNGGFLGPGWAFFDTGMQYGADTARQIVEESFHSLQHVKDVVAMEKIDCDLKEVGYFKGAMTPRVYDAIGRNMDRIRKIIPCNVYMVPRSEQHKEIGSDLYHGGVAMPGYCGIHPAKYVKGLAEAANRLGVKIYSNARVSDLEGKNGGFSFKVGSRTIAARQILLAANGYSGSLLPHLKRRIIPVGSGLIATEQLPVEVMDRLMPKRQMLAGSQRVVTYYRPSPDNTRIVFGGRVLNMSGAHESAVANAKYIRSLLLAVFPELASAKITNYWHGQLGFTFDHLPHVQTIDGMYFAGGYNGTGVARASWLGSRVAYEMLGSDLGKTVYRNLPFDGRRFYNGKPYFLPLAVWYYGMLDKWDQRLEHHHHHH” here?
**A.** not soluble

**Q.** Which “soluble on expression in E. coli” value does the source give for “MAHHHHHHMGSTDGECASSLRGHRMPSWILSHLETESKCLNDTPLVEEEKAPPSVPVTVLKKRFPQGLKILKKAPPKEKIVMPVEEECADSCRSSRPSVSVQSAVPGNGHRIARHTIRFRMSDWANLIEEKKDLVAQAVKEDISEGCGLDIGRILQLELKLTDILVVTFIVDHSHDDGGERPFHARLKVCKFPRTSSLYLLR” here?
**A.** soluble

**Q.** With “PWLENVQVQLSDLFSELKYNSVSGSGKIGIMASGVSALYVKEAVKGFEELFTLFRVGTVYPFPEKAALSFLKGIEKLIVVEELDPYLEEQALQLIGRAHLPADVYGKKNGFFPVSGEYNVDIIIDCINKVLAELGETSRLSHSAPAIPRSGLPPLPVRAPTLCAGCMHRTVFYAFKQASKQLKKDFQVETIFSGDIGCYTLGNAHPLNMVDTCLCMGAGMSIAGGLSRANPGVKQVAFIGDSTFFHSGIPAVINAVYNGSDVTLAVLDNRTTAMTGHQTHPGIGVTVLGSPSKAVDISDVIRSCGVELVRSVDIDSLENSLEGCIEAAKEAVEFKGPSAVVFKGKCVGITKPVIRFEIDTESCTGCGLCVKQLGCPALFLPAGEEKPVIQDSCSGCGLCAQVCPSGAIIETGVK” as the sequence, how does the “soluble on expression in E. coli” value read?
**A.** not soluble

**Q.** Which “soluble on expression in E. coli” value does the source give for “MGHHHHHHSHMSKAIKQNLADSKKMSAELFCLTYGAMVTEMLKDYEDPKDVTIQLDKMGFNMGTRLADDFLAKNANVPRCVDTRQIADVLCRNAIPCYLGISATASSWTSGDREFTITLEANPLTELVQVPAHLVSAGLSYSQLIAGAIRGALEAVHFKVYASATDTGANTEIRIRFDQVLKDSLPAGEDD” here?
**A.** soluble

**Q.** For “MSLTAYQASSQARVDAAMHTLFTAPSPELARLYEAMRYSVMNGGKRVRPLLAYAACEALGGKPEQANGAACAVELIHAYSLVHDDLPAMDDDDLRRGQPTTHKAFDEACAILAGDGLQSLAFSALLDPALSDASAEIRLRMVTTLAQAAGPAGMVGGQAIDLGSVGLKLDQQALEYMHRHKTGALIEASVILGALASGRAEKGELKALQTYAQAIGLAFQVQDDILDVESDTATLGKRQGADIARDKPTYPALLGLAAAKEYALELRDQALHALRPFDAAAEPLRELARYIVERRSEGHHHHHH”, which “soluble on expression in E. coli” value is on record?
**A.** soluble

**Q.** Which “soluble on expression in E. coli” value does the source give for “MGSDKIHHHHHHMLGRSANGIFWLFRYLERAENSARAIEAGFRLALTRDASDASDEWRSLIVTLGLQNAYEAKYGPGFTGPHVFNFILRDRENPGSVLAMMEMARTNARMVRAGITREVWESVNDGWMKLREALARPVTETRLGDVLDLVRRQSTQVRGAIEGTMLRNEIYNFARLGSFIERADNTARILDVKYYVLLPSVSYVGSSLDNVQWENVLRSLAGERAYRWLNAGRMDPRGIAEFLILDERFPRSLAFCYSKLRSNLASLAREYGGEMHSHEILRDADTQLHTATIEAIFDQGLHEFIGKFIACNTALALQIQRDYRFTE” here?
**A.** not soluble

**Q.** For “MSNKIVTLEINLEPSDNRRLASLCGPFDDNIKHLERRLGVEINHRSDHFTIVGKPHTSAAALDILKTLYVDTAPVRGEIPDIEPEQIHLAIKESGVLEQNTESSIAHGKEVFVKTKKGVIKPRTPNQAQYLVNMVTHDISFGIGPAGTGKTYLAVAAAVDALERQEIRRILLTRPAVEAGEKLGFLPGDLSQKVDPYLRPLYDALFEMLGFERVEKLIERNVIEVAPLAYMRGRTLNDAFIILDESQNTTVEQMKMFLTRIGFNSRAVITGDVTQIDLPRGAKSGLRHAIEVLSEVDDISFNFFQADDVVRHPVVARIVNAYEKWEAQDQKERKEFEKRRREERDAKLLEAAKAELSAQVAATKE”, which “soluble on expression in E. coli” value is on record?
**A.** not soluble

**Q.** With “MMRRILLKSIKFYRIYLSPLKRNACCKFIPTCSQYAIDAIEKYGALKGSFMAVKRILRCNPFSKGGYDPVKLEHHHHHH” as the sequence, how does the “soluble on expression in E. coli” value read?
**A.** not soluble

**Q.** For “MGSDKIHHHHHHMITENIKKEILRRIRNAEKEHNVKVLYAVESGSRAWGFESPNSDYDVRFIYAHPKDWYVSVDLEYKRDVIEYEIVDEIDINGWDIRKALQLFSKSNPAFVEWIQSSIVYVDDHSFAKGARQLLDTVYSVEKGIYHYRSMAKTNYRGYLKEEIVPIKKYFYVLRPLLSIMWLEKYQKPAPIEFVKLRTLIPTGSTIDQAISDLLERKKRSLEKEYAPAVPVLNAFIESELDRLENYQDSPQRNSSHMESLNSLFRVSIS”, which “soluble on expression in E. coli” value is on record?
**A.** not soluble

From the DeepSol protein solubility set
